Source: the supplement of paper PMC12636428

Tested on: Saccharomyces cerevisiae
Test: transcriptional activation domain activity (GFP:mCherry ratio, weighted mean of sorted bins, harmonized to initial dataset scale) (arbitrary fluorescence ratio units); higher = stronger transcriptional activation
Details: beta-estradiol 1 µM; induction time 4 h
In short: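 Each value is an activation activity: the read-weighted mean of bin median fluorescence, averaged across barcodes, then mapped linearly to the initial dataset scale. The tiles, fused to an estradiol-inducible synthetic transcription factor, sat at the yeast URA3 locus in GFP-reporter diploids. Cells spent 4 hours at 30 °C in SC with 1 uM beta-estradiol before sorting into 8 GFP:mCherry bins, and tiles below 50 reads were removed.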

Row | Sequence | transcriptional activation domain activity
1 | MISIPFPFHFIFKYVWWYYHVLYCLLACLLACCSCTYMFYLPVLLMLLLLFGC | 41900
2 | MISLFFFLFLYHIYVFLLLLLLYFLPSLPYPPIYTLYIVSLIIPHLVYLLQNS | 31400
3 | MISLVYTGVDGEFGMLFGFGFWFCFLMGRRFTVFVFVFLDMFWGHVFCFVCIS | 45600
4 | MISPFHFQSLFFILFLLFFLCAWCSGWAGLRFFTPHLVSIFFLFMDWQLDLVG | 48500
5 | MISPIFPRNLIIHNITFSMLFSFFSFLFYTLYALFNFPVPFFLSSILTPLNIF | 71200
6 | MISSAKLTLFAFFRSMQMQSISLGRNLKAFILRCVLLWPRILRSFRKVWSWYF | 18200
7 | MISTLAMSLLETPIEPRTHAEICLEFWGIRLCSPITDINLAAFWNYYFKTIAH | 45600
8 | MISWLLCFFDFRGDFLYGVLFFCTIFCFAVFGFFFFLQPSTFSFTIFFLCFFS | 31000
9 | MISWLLCFFGFRGGFFYMVFFLICTIFCFAVFGFRFLQLSTFFFHNIFLMFFF | 51900
10 | MISWLLRFFWLPGGLFFIWCFFSVPFFALRFCSCRHSFFTTFFLCFFYFYFVT | 67100
11 | MITQILYLDLLHPLHCHFFFFFSFFSSLIVVSVIITRLYFFFFSHLVIFCPFL | 54600
12 | MITRCHLIIFLFWLLLLLLLFRCWATFLCISAWLFAKQEKQTFCQPCLLIMRV | 38200
13 | MITRRTGGNSGNWVPSIRVQEGVLTKGFRPINMRSELVRLHEVVILVVGMEMD | 47100
14 | MITTLFSFLLVFFPFFLFRFFLLLLLLNLFLLLLSHFLSLYHQPISPIPPRHH | 74200
15 | MITTLYHHVRYILIRQPRRPVSLLDQPAVLNYLYVLLYHTIVTFNILTPAVYW | 49600
16 | MITVALYIIGRGFFSFFFIFCHFTILVFLFLAAYFFLFFSCPFLLLFYFFWFT | 54200
17 | MITVLSVIPLLLLLLLLLLLLLLLLLLLLISPLFRLGSLFVFCPYILFRLWWV | 42000
18 | MITYIILLLFFLLYYSIILFTSFSFSFFITFILHTITTLPVFILSCCSTFFFF | 66600
19 | MITYILRLGFDYLPPLALWIAIVLVHYTYVCCFLVVACENTCRWHMVQFNLRH | 73300
20 | MIVFLFWVIGINLDCNCWFSLFLILLMRVMDLMSYGWIIEVFFFLLNFYYLLF | 53700
21 | MIVFSPISFVGTLWVVSCCLFFKFPLPLPFPLPLPFFFFVSLFFLYLSRKIRA | 28200
22 | MIVLCASFFYILSSLSLFFFFLTLPIMHFLPFSRLFIFSCFLFPLYLFTSFFL | 31000
23 | MIVLVLLFLVFCLLLLVGMVDERGMAGDMYKLYRTPASCRVLALSNPIVRGAW | 52800
24 | MIVMNQPNYIFDEFAIIISVYISSISNLAFYFGYDFLVLLFLQNLLEFIIMCY | 76800
25 | MIVRLSSVPVSGCSFVVIEALLDFLVLPLRHFNLFIAPTSFFSHLYVFFFFGR | 56700
26 | MIVVVLCLPSALTHLGCLFYHDPSSPFALVTFSVSLIIILPNLGVILFGFFNI | 48600
27 | MIWCSFLLALSWSYFCDLPCFFFFFFFFFFFFFFFADIYCSFLSFKLITPISF | 52600
28 | MIWREFFLFFLFFFFLFGIYGLRVAGLDYFVYGDLFVIINISYLFFWWVYAIY | 45900

Row | Sequence | transcriptional activation domain activity
29 | MIWRYVWYTLVLGCLFCCRPNYSLLVPNTIDLHRLWLGFRFQILFVAWGVYLV | 58900
30 | MIYACGLICFYFFFFFLYFFPFCISFHIFLFSFLYPSCSFSFLQHCQVGTGVC | 48900
31 | MIYGWSIFFFFFFFALHVYIRVFLWGRFCLRVVWVRLFLFHFSGWGCNFGGFV | 49700
32 | MIYLASFLLLTVDSSIWSVPITIFIPYTIYLFPPHTYICVLFARILIFHLLSF | 61200
33 | MKACLRCLVFLLGCTSPWCFTRYLALEHFTLFWIDADLWWQVYRFSILVLLSY | 44400
34 | MKAEYITLINLLVHPSFVLWESPLPTLSFFFFFFFFLAWSPFRVFSLFVIPSL | 50300
35 | MKDSHTARSDAVVFAIAVGRPFFFAAVLLRLLATETLGSSIALGVIGLVFIYC | 42400
36 | MKELSFFPISISIQRYSHIRWVLLHCTNYLISFVYHCYVIILSVFFFLYIFTA | 76900
37 | MKEPVDDNVLQEPVPFEDFKFSFGMDPDFSFPLEPTLPTPQLSFMQDPFLLFP | 116000
38 | MKFCFIVWLSCMCIYFAKVIVVFLIALCLDNIFPFHIPNTKLLIPSTHFMITW | 57500
39 | MKFLFILCCHILPYVPIFYLMSLSSIFLHFTLLFIYLITLFYTFAYIFIFSFY | 50400
40 | MKFLPFRFADLQANNFILFYFLYLMLACYLYPICIYTGKLFVIFPFIFLFFVP | 55000
41 | MKFVFVPFAVSPPKPFFLLLFLLLFFTSTFCAFSISPFSLFCSSLFYCSRFLL | 52400
42 | MKGIRLYFKYVLLHVLLLPPSLLPFFFPLSPLFYMSILMGFSSPFFFFFSFIH | 53000
43 | MKGIRLYFRYVLLHVLLLLPSLPFFFPYLCRRFTCSFMNILIGFLFCFFLYIC | 55300
44 | MKGVCLKVGTTKPKKPNSGERKIARVRLSSGKVITAYIQGEGHNVQQHSVVLV | 51000
45 | MKGVCLKVGVVRPKKPNSGERKTARVRLSNGRQVTAYISGEGHNIQQHSVVLV | 53500
46 | MKHETLFFLFCRSLTRFFPMFGASFFFVLFLDLFVFVFCVVYGYSRFIFFLFV | 50300
47 | MKIHECTGVVYIGNVLCHKQPQVLLGLMFFMDLTLFFLDSYLWYIICNTIFSV | 68700
48 | MKILRLYLTKLPFLARPILTQLLQESLFRYGIVRELGIYLRQNYFDNTGRFTL | 83400
49 | MKILSFLCTYSLSFTLTIPNSLLSFLRTLFNFTNNYKYMILLLLGYLCLIGLF | 35600
50 | MKILYCILCMLFFFLFLSFYIQKKILFSLTCVFTLPPLSLFLFFFLFIVQILC | 55700
51 | MKIVWFSGPKVCTLFIFLLFCFLLSCCSAFLVSFFCWFLSCWLFLLAFGLLFF | 49400
52 | MKKKKGEGMKKERRRRGGEGGGKGALRREKKGTGTGKDGEREKQEKGEEGKCN | 29900
53 | MKKLEKLLLSNDLTSQKKAFLVLCRMHYLTSSLLSSCVVVLVVGWSSIQKNTT | 63400
54 | MKLMLSLYLLRMIFSLLVFFLLSGNVVATLFGFSMCFLIRFGWCCVLSYVLSF | 68500
55 | MKLPWDDSVTIFLVNYVDFLLLFPFVLLMEFIFDDLPWLSLYVLKHYYNILYM | 38600
